Patent US20220056425, “RNA PO[…] FOR […] OF MODIFIED RNA” (GUARDIAN THERAPEUTICS, LLC, published 2022)

The binders below were run against KRAS (UniProt P01116 P01116:1-189) (assay: plate binding compared to BSA; only central region printed).

Binder	binding result
W2.S1.1_R6P-1 (ssRNA, 2'-OMe at all nucleotides) RNA: GGGAGAGCAUUGCUCGUUAGUGGAGCCUAUGGUUGUUGUGUGCUCCUCGCGGGAGCUAGUGACUCGGAUCAUCUAGG	binds
W2.S1.1_R6F-1 (ssRNA, 2'-OMe at all nucleotides) RNA: GGGAGAGCAUUGCUCGUUAGUGGCGUUACAGCAGUUGCCACAAGGCACGUUUUAGCUAGUGACUCGGAUCAUCUAGG	binds

These binders were tested against Cholera toxin (holotoxin and/or B subunit) (UniProt P01555;P01555;P01556 P01555:19-212,P01555:213-258,P01556:22-124) (assay: not given).

Binder	binding result
CT aptamer clone 2 (ssRNA) RNA: GGGAGAGCAUUGCUCGUUAGUGUCGUCUUGGUAAUUCCCUUUCUGGUCGUUUAAGCUAGUGACUCGGAUCAUCUAGG	binds
CT aptamer clone 9 (ssRNA) RNA: GGGAGAGCAUUGCUCGUUAGUGUCGUCUCGGGAUUUUUCCCGUGGUCGUUCAUAGCUAGUGACUCGGAUCAUCUAGG	binds
CT aptamer clone 7 (ssRNA) RNA: GGGAGAGCAUUGCUCGUUAGUGUCGUCUUGACCUUUGCUGGUCAUGGUCGUAAAGCUAGUGACUCGGAUCAUCUAGG	binds
CT aptamer clone 11 (ssRNA) RNA: GGGAGAGCAUUGCUCGUUAGUGUCGUCUCAUCGAAUGGUCGGUGUGGUCGUUAAGCUAGUGACUCGGAUCAUCUAGG	binds
CT aptamer clone 8 (ssRNA) RNA: GGGAGAGCAUUGCUCGUUAGUGUCGUCUAAUCGGUUUUCCGGUUUGGUCGUUGAGCUAGUGACUCGGAUCAUCUAGG	binds
CT aptamer clone 5 (ssRNA) RNA: GGGAGAGCAUUGCUCGUUAGUGUCGUCUCGCGAACGUUAAUCGCGUGGUCGUGAGCUAGUGACUCGGAUCAUCUAGG	binds
CT aptamer clone 10 (ssRNA) RNA: GGGAGAGCAUUGCUCGUUAGUGUCGUCUCGAGUUGUGAUUACUCGUGGUCGUAAGCUAGUGACUCGGAUCAUCUAGG	binds
CT aptamer clone 3 (ssRNA) RNA: GGGAGAGCAUUGCUCGUUAGUGUCGUCUUAAACUUCGUGUUUUUGGUCGUUGUAGCUAGUGACUCGGAUCAUCUAGG	binds
CT aptamer clone 4 (ssRNA) RNA: GGGAGAGCAUUGCUCGUUAGUGUCGUCUUCAAUCAUGCAUUGUUGGUCGUUGAAGCUAGUGACUCGGAUCAUCUAGG	binds
CT aptamer clone 1 (ssRNA) RNA: GGGAGAGCAUUGCUCGUUAGUGUCGUCUCGGAGUUUAUCUCCGUGGUCGUUGAAGCUAGUGACUCGGAUCAUCUAGG	binds
CT aptamer clone 6 (ssRNA) RNA: GGGAGAGCAUUGCUCGUUAGUGUCGUCUCGAAUCGAACUUUCGUGGUCGUUAAAGCUAGUGACUCGGAUCAUCUAGG	binds
